B1: Brefeldin A-inhibited guanine nucleotide-exchange protein 2 (Homo sapiens), Q9Y6D5 (parent)
chain: MQESQTKSMFVSRALEKILADKEVKRPQHSQLRRACQVALDEIKAEIEKQRLGTAAPPKANFIEADKYFLPFELACQSKSPRVVSTSLDCLQKLIAYGHITGNAPDSGAPGKRLIDRIVETICSCFQGPQTDEGVQLQIIKALLTAVTSPHIEIHEGTILQTVRTCYNIYLASKNLINQTTAKATLTQMLNVIFTRMENQVLQEARELEKPIQSKPQSPVIQAAAVSPKFVRLKHSQAQSKPTTPEKTDLTNGEHARSDSGKVSTENGDAPRERGSSLSGTDDGAQEVVKDILEDVVTSAIKEAAEKHGLTEPERVLGELECQECAIPPGVDENSQTNGIADDRQSLSSADNLESDAQGHQVAARFSHVLQKDAFLVFRSLCKLSMKPLGEGPPDPKSHELRSKVVSLQLLLSVLQNAGPVFRTHEMFINAIKQYLCVALSKNGVSSVPDVFELSLAIFLTLLSNFKMHLKMQIEVFFKEIFLNILETSTSSFEHRWMVIQTLTRICADAQCVVDIYVNYDCDLNAANIFERLVNDLSKIAQGRSGHELGMTPLQELSLRKKGLECLVSILKCMVEWSKDLYVNPNHQTSLGQERLTDQEIGDGKGLDMARRCSVTSMESTVSSGTQTTVQDDPEQFEVIKQQKEIIEHGIELFNKKPKRGIQFLQEQGMLGTSVEDIAQFLHQEERLDSTQVGDFLGDSARFNKEVMYAYVDQLDFCEKEFVSALRTFLEGFRLPGEAQKIDRLMEKFAARYIECNQGQTLFASADTAYVLAYSIIMLTTDLHSPQVKNKMTKEQYIKMNRGINDSKDLPEEYLSSIYEEIEGKKIAMKETKELTIATKSTKQNVASEKQRRLLYNLEMEQMAKTAKALMEAVSHAKAPFTSATHLDHVRPMFKLVWTPLLAAYSIGLQNCDDTEVASLCLEGIRCAIRIACIFGMQLERDAYVQALARFSLLTASSSITEMKQKNIDTIKTLITVAHTDGNYLGNSWHEILKCISQLELAQLIGTGVKTRYLSGSGREREGSLKGHTLAGEEFMGLGLGNLVSGGVDKRQMASFQESVGETSSQSVVVAVDRIFTGSTRLDGNAIVDFVRWLCAVSMDELASPHHPRMFSLQKIVEISYYNMNRIRLQWSRIWHVIGDHFNKVGCNPNEDVAIFAVDSLRQLSMKFLEKGELANFRFQKDFLRPFEHIMKKNRSPTIRDMAIRCIAQMVNSQAANIRSGWKNIFAVFHQAASDHDGNIVELAFQTTCHIVTTIFQHHFPAAIDSFQDAVKCLSEFACNAAFPDTSMEAIRLIRFCGKYVSERPRVLQEYTSDDMNVAPGDRVWVRGWFPILFELSCIINRCKLDVRTRGLTVMFEIMKSYGHTFEKHWWQDLFRIVFRIFDNMKLPEQLSEKSEWMTTTCNHALYAICDVFTQFYEALNEVLLSDVFAQLQWCVKQDNEQLARSGTNCLENLVISNGEKFSPEVWDETCNCMLDIFKTTIPHVLLTWRPVGMEEDSSEKHLDVDLDRQSLSSIDKNPSERGQSQLSNPTDDSWKGRPYANQKLFASLLIKCVVQLELIQTIDNIVFYPATSKKEDAEHMVAAQQDTLDADIHIETEDQGMYKYMSSQHLFKLLDCLQESHSFSKAFNSNYEQRTVLWRAGFKGKSKPNLLKQETSSLACCLRILFRMYVDENRRDSWEEIQQRLLTVCSEALAYFITVNSESHREAWTSLLLLLLTKTLKINDEKFKAHASMYYPYLCEIMQFDLIPELRAVLRKFFLRIGVVYKIWIPEEPSQVPAALSPVW

Variants of: B1
Conditions: with kap3_human PRKAR2B
With V534W the “effect of a mutation on the interaction” value was “disrupting interaction”. In the case of V289W, the “effect of a mutation on the interaction” value is reported as “disrupting interaction”.
